Source: article PMC9813773, “LACC1 bridges NOS2 and polyamine metabolism in inflammatory macrophages” (Nature, 2022)

Key:
[1] = substrate: NC(=O)NCCC[C@H](N)C(=O)O; experiment: L-Orn formation by LC-QQQ-MS, Michaelis-Menten; assay type: biochemical, Homo sapiens; conditions: 5-500 μM L-Cit, PBS pH 7.4, 1 μM ZnSO4, 37°C
[2] = substrate: NC(=O)NCCC[C@H](N)C(=O)O; experiment: L-Orn formation by LC-QQQ-MS, Michaelis-Menten; assay type: biochemical, Mus musculus; conditions: 5-500 μM L-Cit, PBS pH 7.4, 1 μM ZnSO4, 37°C

B1: hLACC1 (Homo sapiens) (protein)
chain: MAEAVLIDLFGLKLNSQKNCHQTLLKTLNAVQYHHAAKAKFLCIMCCSNISYERDGEQDNCEIETSNGLSALLEEFEIVSCPSMAATLYTIKQKIDEKNLSSIKVIVPRHRKTLMKAFIDQLFTDVYNFEFEDLQVTFRGGLFKQSIEINVITAQELRGIQNEIETFLRSLPALRGKLTIITSSLIPDIFIHGFTTRTGGISYIPTLSSFNLFSSSKRRDPKVVVQENLRRLANAAGFNVEKFYRIKTHHSNDIWIMGRKEPDSYDGITTNQRGVTIAALGADCIPIVFADPVKKACGVAHAGWKGTLLGVAMATVNAMIAEYGCSLEDIVVVLGPSVGPCCFTLPRESAEAFHNLHPACVQLFDSPNPCIDIRKATRILLEQGGILPQNIQDQNQDLNLCTSCHPDKFFSHVRDGLNFGTQIGFISIKE
notes: codon-optimized synthetic cDNA in pMAL-C5x (MBP fusion), E. coli BL21(DE3), amylose resin; tag cleavage not described
In the case of B1, the Km [1] is reported as 163.7 µM and the kcat [1] is reported as 0.00567 s⁻¹.

B2: hLACC1 (Homo sapiens; C284R) (protein)
chain: MAEAVLIDLFGLKLNSQKNCHQTLLKTLNAVQYHHAAKAKFLCIMCCSNISYERDGEQDNCEIETSNGLSALLEEFEIVSCPSMAATLYTIKQKIDEKNLSSIKVIVPRHRKTLMKAFIDQLFTDVYNFEFEDLQVTFRGGLFKQSIEINVITAQELRGIQNEIETFLRSLPALRGKLTIITSSLIPDIFIHGFTTRTGGISYIPTLSSFNLFSSSKRRDPKVVVQENLRRLANAAGFNVEKFYRIKTHHSNDIWIMGRKEPDSYDGITTNQRGVTIAALGADRIPIVFADPVKKACGVAHAGWKGTLLGVAMATVNAMIAEYGCSLEDIVVVLGPSVGPCCFTLPRESAEAFHNLHPACVQLFDSPNPCIDIRKATRILLEQGGILPQNIQDQNQDLNLCTSCHPDKFFSHVRDGLNFGTQIGFISIKE
notes: as for B1
In the case of B2, the Km [1] is reported as 155.8 µM and the kcat [1] is reported as 0.00275 s⁻¹.

B3: hLACC1 (Homo sapiens; I254V) (protein)
chain: MAEAVLIDLFGLKLNSQKNCHQTLLKTLNAVQYHHAAKAKFLCIMCCSNISYERDGEQDNCEIETSNGLSALLEEFEIVSCPSMAATLYTIKQKIDEKNLSSIKVIVPRHRKTLMKAFIDQLFTDVYNFEFEDLQVTFRGGLFKQSIEINVITAQELRGIQNEIETFLRSLPALRGKLTIITSSLIPDIFIHGFTTRTGGISYIPTLSSFNLFSSSKRRDPKVVVQENLRRLANAAGFNVEKFYRIKTHHSNDVWIMGRKEPDSYDGITTNQRGVTIAALGADCIPIVFADPVKKACGVAHAGWKGTLLGVAMATVNAMIAEYGCSLEDIVVVLGPSVGPCCFTLPRESAEAFHNLHPACVQLFDSPNPCIDIRKATRILLEQGGILPQNIQDQNQDLNLCTSCHPDKFFSHVRDGLNFGTQIGFISIKE
notes: as for B1
Work on B3 yielded a Km [1] of 181.3 µM and a kcat [1] of 0.00433 s⁻¹.

B4: hLACC1 (Homo sapiens; K38E) (protein)
chain: MAEAVLIDLFGLKLNSQKNCHQTLLKTLNAVQYHHAAEAKFLCIMCCSNISYERDGEQDNCEIETSNGLSALLEEFEIVSCPSMAATLYTIKQKIDEKNLSSIKVIVPRHRKTLMKAFIDQLFTDVYNFEFEDLQVTFRGGLFKQSIEINVITAQELRGIQNEIETFLRSLPALRGKLTIITSSLIPDIFIHGFTTRTGGISYIPTLSSFNLFSSSKRRDPKVVVQENLRRLANAAGFNVEKFYRIKTHHSNDIWIMGRKEPDSYDGITTNQRGVTIAALGADCIPIVFADPVKKACGVAHAGWKGTLLGVAMATVNAMIAEYGCSLEDIVVVLGPSVGPCCFTLPRESAEAFHNLHPACVQLFDSPNPCIDIRKATRILLEQGGILPQNIQDQNQDLNLCTSCHPDKFFSHVRDGLNFGTQIGFISIKE
notes: as for B1
B4 gave a Km [1] of 81.58 µM and a kcat [1] of 0.0051 s⁻¹.

B5: mLACC1 (Mus musculus) (protein)
chain: MAEAVLIDLSGLQLNAQKNCHETLLETLDGIHYHHAPKAKFLCIICCRNASKEKDGEYGLCELEAGNGFSRLAGKFETVSHPCLAASLYTIKQKIDEENLSCIKVIVPEHRKLLMKAYVGQLFTEVYEFEFEDLQGAWRDSLLKPSTGINVTTTQELEDIQHEIETYLRSLPALKGDLTIVTSPLIPDNFLHGFTTRTGGISSVPTLSSLNLFSSSKRRDPKVVVQENVRRLANAAGFNAEKFYRIKTDHASEVWVMGKKEPESYDGIVTNQRGVTITALGADCIPIVFADPVKKACGVAHSGWKGTLLGVAMATVNAMIAEYGCDVEDIIVVLGPSVGSCCFTLPKESAVSFHSLHPSCVRHFDSPRPYVDIRKATRILLERGGILPQNIQDQKEDLDLCTSCHPEKFFSHVRDGLNFGTQIGFISLRE
notes: as for B1
In the case of B5, the Km [2] is reported as 117.2 µM and the kcat [2] is reported as 0.0055 s⁻¹.
